# Reference: the DeepSol protein solubility set
# Assay: soluble on expression in E. coli; label from the status in PepcDB or PDB records
row,Sequence,soluble on expression in E. coli
1,MPLSPTSVPLTVKEFEKALCGICGGCSSACGYIAYLKQDELVDLYGHPHDPNGIGSFCTKGITYIQEIPKNPLRITKPLLREGNNFREVEFQETKKLIKENLKGKVAFFLDRFAGIEEYLIARSLTEEVFSDSLYLPFKQTSVRAQDWVDKKALFIFEAEPTFSEVMLTRWIVDAFEKDAYIFTAGSRYTTVFQKSKEKVLTTPEKTTEILQALSEGRFEGKAQKFLEFFGKESVVIVGDTLLRSPFRGKVLKTLKEISEKYGADYSIVGNITPFPVKSLKEFLERLGEFDTLVLFGNPFIYLSDEQIQKLKDKFVINFAYFPTITANHSTLIIPRTTFAEREFIVKGFGFLAHSPQVLNAPFPQPYEYFESSFDVEDFLKECGVKLEELKEKEGGVDISMKDITEVDINEEDRSESGELWFICDNTLAEELGHWNPWTHALEREQFAYVNQKTKERLNIGNLIEINGVKLKVKVNNNLADNVVFVPNSFEEFQPFDPGIRVGRLMKKPFFKLEVLNLNV,not soluble
2,ADVILFPSKNGAVTFTHKRHSEFVRECRSCHEKTPGKIRNFGKDYAHKTCKGCHEVRGAGPTKCKLCHTG,soluble
3,MSLKTFIKIILLYLMPILAFATELRPGDRLQIKFPGESAFEKSFQLDHDGKISLPEIGTVKLQGMSLLQARTVLTGKLSNAYKDLSKFDLFLKERRLTVTVLGYVKEPGPVDMPIRANVQMAINSAGGLAQGAQLDKLQIRRSSGIIEFDYKHYLDSGDPSSLPKLEPMDVIFIPASPLIGNVQVEFDARTLTASGDAGEDGEAIKVFGEVHRPGTFAFKEDASVMDMIMRAGGVTRYAGIEQIRVIHQGQPYPFDMREYLDTGNPDLMPKIHQGDVIFIPQATEQVKSGSRTVYVMGEVFKPGAMEMGEGSGFYDLLATAGGPTRFAETRQIRIIRADGKVQPFDLQGYVDSQGRTKLPSIQPGDAILVPEKTDMNEKSWLKVHPNRAVRIIGAVNRPGRYEWASEMTLMDLIAHAGGPIASADTAHLQILQQRKNGNTESVSFDLKSFLDEGHHHHHH,not soluble
4,MAHHHHHHMEDITWVRSEVHSWIYDNLRAKWTSLVRQPTKLRTMFSGYRSTPTFVDRVLRRVGIANEIALTAMLRTWGPPELHAFVALYVRLRFPMIVALNKADLSTAADVAAALRQAYPHEVFVLMTARIEWLALQLSRKGYVDYTPGAASLSLKADCGEGADLEKRVRQELHDVTSFFRTTTSSPERLSSSVLRLTTTGVQDVLAAAMEACGVMLVYPVRAFHPVTSLAHCLTFKLGSSAERVFNALVHLQLLEGKLARFEMIDLAPVKRQLHQQLLASLATAPSNEASTPVPAQQQQCAVALPTSVQTLRKTEVIRSSAVLARILSNKRQLA,not soluble
5,MGSDKIHHHHHHMNTLVLPKTQHLVVFQEVIRSGSIGSAAKSLGLTQPAVSKIISDVEAYFGVELIVRKNTGVTLTEAGQVLLSWSESITREMKNMINEMNSMTCNTVVDVSFGFPSLIGFTFMSDMIHKFKEVFPKAQVSMYEAQLSSFLPALRDGRLDFAIGTLSNEMQLQDLHVEPLFESEFVLVASKSRTCTGTITLESLKDEQWVLPQTNMGYYSELLTTLQRNGISIENIVKTDSVVTIYNLVLNADFLTVIPCDMTTPFGSNQFITIPIQDTLPVARYAAVWSKNYRIKKAASVLVELAKQYSSYNGCRRRQLIEIE,not soluble
6,EVKQFNTYANNLAKIKQKVILMGLLTEAKLEQYKGLSVDEVEAQTEFSFQDAIYSLSPYEKLNYVEAVARKSLHQAEAYLSNAFNRQNAIMYFRSYTGSKLILERPIKALEGVKATFDVDWCKSNYSCVLAAWKEQLTDRVLFSLPFKTTYSDDMAISIMSPVYFQGELVGEFSEQLYLSSLYNEGKAVDVQISNGNKQMVIYFSGYPWPSFAYTQSFVADNNNLIVYMYPFSKV,not soluble
7,MILVGNGRLISQDSLNPYMEDGCVVINDNLIEDIGTTEEMKAKYPVHEFIDAGKKIIMPGLINSHMHIYSSFARGMAVPGKPSENFLEILNNLWWRLDKQLTLEDTKYSAYATYIECIKNGVTTVYDHHASPNAIEGSLFTISDVAKDLGIRTCLCYEVSDRDGGNTIQQGINENVNFIKYAQKDDTDMIKGMFGLHAAFTLSDDTLNKCASEMAGLDTGYHVHVAEGLADLQYNVDKYGKRVLERFNDFGVLKEKTIAVHCIYISAEEISFLNKTNTFVVHNPESNMGNAVGCSPAIELLKRGVTVGLGTDGYTSDMFESLKVANIIHKHHLKDPRVGFEESQTMLFDNNRKIAKAYYKNDLGVLKKGAYADVIVVDYIPHTPLTENTIGGHTIFGMSGRSVDTTIINGKVLMKDRKLINIDEESILAKSRELSQNLWNRI,not soluble
8,AERPTLPIPDLLTTDARNRIQLTIGAGQSTFGGKTATTWGYNGNLLGPAVKLQRGKAVTVDIYNQLTEETTLHWHGLEVPGEVDGGPQGIIPPGGKRSVTLNVDQPAATCWFHPHQHGKTGRQVAMGLAGLVVIEDDEILKLMLPKQWGIDDVPVIVQDKKFSADGQIDYQLDVMTAAVGWFGDTLLTNGAIYPQHAAPRGWLRLRLLNGCNARSLNFATSDNRPLYVIASDGGLLPEPVKVSELPVLMGERFEVLVEVNDNKPFDLVTLPVSQMGMAIAPFDKPHPVMRIQPIAISASGALPDTLSSLPALPSLEGLTVRKLQLSMDGGANKINGQAFDMNKPMFAAAKGQYERWVISGVGDMMLHPFHIHGTQFRILSENGKPPAAHRAGWKDTVKVEGNVSEVLVKFNHDAPKEHAYMAHCHLLEHEDTGMMLGFTVGHHHHH,soluble
9,DERGEVVDGDKLIGALAMHLKNSHTLEKPLAVATVMSNLALEEFLAKAKIKLLRAGVGDKYVLEMMQKEGANFGGEQSGHLIFSDFAKTGDGLVSALQTMAFVLRSGERASRALNIFDLY,not soluble
10,MGSDKIHHHHHHMNEVIENVKEYYGKILHSTADLQSKACCCSPDSMPKEVKKALIFIADEVINRYYGCGSPLPPLLEGMTVLDLGCGSGRDVYVAAQLVGEHGRVIGVDMTQEQLDVAKKYEDEQRQRFGYAKSNVKFLSGYIEDLRAAGISDSSVDIVISNCVVNLSPDKEKVFAEIWRVLKPGGELYFSDVFADRRIPEYLAADPVLRGECIGGALYYEDFRRIMQRVGFTDFRYKSIRNIDLDNEAIIEKVGFANFTERTVRAFKLDDLEDICEDYGQIAVYNGSIASSPHFFDLDDHHRFFTGKPLLVCGNTAAMLAKTRFASAFRVIGNRSTHYGVFGVCGGKSETNCFDTGSSCGC,not soluble
11,SPKKAKPTGSGKEEGPAPCKQMKLEAAGGPSALNFDSPSSLFESLISPIKTETFFKEFWEQKPLLIQRDDPALATYYGSLFKLTDLKSLCSRGMYYGRDVNVCRCVNGKKKVLNKDGKAHFLQLRKDFDQKRATIQFHQPQRFKDELWRIQEKLECYFGSLVGSNVYITPAGSQGLPPHYDDVEVFILQLEGEKHWRLYHPTVPLAREYSVEAEERIGRPVHEFMLKPGDLLYFPRGTIHQADTPAGLAHSTHVTISTYQNNSWGDFLLDTISGLVFDTAKEDVELRTGIPRQLLLQVESTTVATRRLSGFLRTLADRLEGTKELLSSDMKKDFIMHRLPPYSAGDGAELSTPGGKLPRLDSVVRLQFKDHIVLTVLPDQDQSDETQEKMVYIYHSLKNSRETHMMGNEEETEFHGLRFPLSHLDALKQIWNSPAISVKDLKLTTDEEKESLVLSLWTECLIQVV,soluble
12,YDTVIRNRQTNDVNYLKRLAKKFGFSETQFMTTYQSSELAANLDEERQVVSRLKINQLPAYVVTYNEQSYVIKGVLKYKEWLDIIQQITN,not soluble
13,MRIPRIYHPEPLTSHSHIALCEDAANHIGRVLRMGPGQALQLFDGSNQVFDAEITSASKKSVEVKVLEGQIDDRESPLHIHLGQVMSRGEKMEFTIQKSIELGVSLITPLFSERCGVKLDSERLNKKLQQWQKIAIAACEQCGRNRVPEIRPAMDLEAWCAEQDEGLKLNLHPRASNSINTLPLPVERVRLLIGPEGGLSADEIAMTARYQFTDILLGPRVLRTETTALTAITALQVRFGDLG,soluble
14,MSRPFTGATLCTTIAPHCSRTTAMTTLPAASPEALATSQALCGRISQAIAEAGGWIPFSHYMELALYAPGMGYYAAGSRKLGEDGDFVTAPELTPLFGQSLARQLAELLPQTAGAVYEFGAGTGKLAIDLLAELKALNQLPAKYVILDLSPDLIDRQRQNIRAALPHLADRVEWASSLPDAIDGIVIGNELLDAMPCEMVFRDEDRRLRQRGVTVRDGALCYEDRDFADSRLAELAAQLLPDIPRYETEISLANRAFIATVAGALTRGAILMIDYGHAASEYYHPERSMGTLLGHYRHHTVQDPFYLPGLMDLTCHVDFTAVAQSGIDAGLDLIGYTSQAQFLVNCGLIERLQTLDADDVKAYLPIAKAAQRLLSPQEMGETFKAIGFGKGVSIDWLGFARGDRCYTLLEHHHHHH,soluble
